Assay results published in US20060094013.

T1: peptide p300 [84-93 (S89A)], Q09472
T1 chain: LLRSGASPNL

B1: GST-rat SIK1 (protein)
chain: MVIMSEFSAVPTGTGQGQQKPLRVGFYDVERTLGKGNFAVVKLARHRVTKTQVAIKIIDKTRLDSSNLEKIYREVQLMKLLNHPNIIKLYQVMETKDMLYIVTEFAKNGEMFDYLTSNGHLSENEARKKFWQILSAVEYCHNHHIVHRDLKTENLLLDGNMDIKLADFGFGNFYKPGEPLSTWCGSPPYAAPEVFEGKEYEGPQLDIWSLGVVLYVLVCGSLPFDGPNLPTLRQRVLEGRFRIPFFMSQDCETLIRRMLVVDPAKRITIAQIRQHRWMQADPTLLQQDDPAFSMQGYTSNLGDYNEQVLGIMQALGIDRQRTVESLQNSSYNHFAAIYYLLLERLREHRSTQPSSRATPAPARQPQLRNSDLSSLEVPQEILPCDPFRPSLLCPQPQALAQSVLQAEIDCDLHSSLQPLFFPLDTNCSGVFRHRSISPSSLLDTAISEEARQGPSLEEEQEVQEPLPGSTGRRHTLAEVSTHFSPLNPPCIIVSSSAAVSPSEGTSSDSCLPFSASEGPAGLGGGLATPGLLGTSSPVRLASPFLGSQSATPVLQSQAGLGATVLPPVSFQEGRRASDTSLTQGLKAFRQQLRKNARTKGFLGLNKIKGLARQVCQSSIRGSRGGMSTFHTPAPSSGLQGCTASSREGRSLLEEVLHQQRLLQLQHHSAVSSDYQQAPQLSPVPYVLTPCDGLLVSGIPLLPTPLLQPGMSPVASAAQLLDAHLHISAGPVALPTGPLPQCLTRLSPSCDPAGLPQGDCEMEDLTSGQRGTFVLVQ
B2: GST-mSIK2 (protein)
chain: MVMADGPRHLQRGPVRVGFYDIEGTLGKGNFAVVKLGRHRTTKTEVAIKIIDKSQLDAVNLEKIYREVQIMKMLDHPHIIKLYQVMETKSMLYLVTEYAKNGEIFDYLANHGRLNESEARRKFWQILSAVDYCHGRKVVHRDLKAENLLLDNNMNIKIADFGFGNFFKTGELLATWCGSPPYAAPEVFEGQQYEGPQLDIWSMGVVLYVLVCGALPFDGPTLPILRQRVLEGRFRIPYFMSEDCEHLIRRMLVLDPSKRLSIAQIKEHKWMLIEVPVQRPILYPQEQENEPSIGEFNEQVLRLMHSLGIDQQKTVESLQNKSYNHFAAIYFLLVERLKSHRSSFPVEQRLDGRQRRPSTIAEQTVAKAQTVGLPVTLHPPNVRLMRSTLLPQASNVEAFSFPTSSCQAEAAFMEEECVDTPKVNGCLLDPVPPVLVRKGCQSLPSSMMETSIDEGLETEGEAEEDPSQAFEAFQATRSGQRRHTLSEVTNQLVVMPGAGKMFSMSDNPSLESVDSEYDMGSAQRDLNFLEDSPSLKDIMLANQPSPRMTSPFISLRPANPAMQALSSQKREAHNRSPVSFREGRRASDTSLTQGIVAFRQHLQNLARTKGILELNKVQLLYEQMGSNADPTLTSTAPQLQDLSSSCPQEEISQQQESVSSLSASMHPQLSPQQSLETQYLQHRLQKPNLLPKAQSPCPVYCKEPPRSLEQQLQEHRLQQKRLFLQKQSQLQAYFNQMQIAESSYPGPSQQLALPHQETPLTSQQPPSFSLTQALSPVLEPSSEQMQFSSFLSQYPEMQLQPLPSTPGPRAPPPLPSQLQQHQQPPPPPPPPPPQQPGAAPTSLQFSYQTCELPSTTSSVPNYPASCHYPVDGAQQSNLTGADCPRSSGLQDTASSYDPLALSELPGLFDCEMVEAVDPQHNGVVSCLARET

Assays:
[1] = target: SIK1 substrate mutant (R575A) wherein arginine at position 575 is substituted with alanine
[2] = target: SIK1 substrate mutant (R574A) wherein arginine at position 574 is substituted with alanine
[3] = target: SIK1 substrate mutant (R574/575A) wherein arginines at positions 574 and 575 are substituted with alanines
[4] = target: GST-Syntide 2 [GST: P08515]
GST-Syntide 2 [GST: P08515], sequence (P08515 whole entry, looked up): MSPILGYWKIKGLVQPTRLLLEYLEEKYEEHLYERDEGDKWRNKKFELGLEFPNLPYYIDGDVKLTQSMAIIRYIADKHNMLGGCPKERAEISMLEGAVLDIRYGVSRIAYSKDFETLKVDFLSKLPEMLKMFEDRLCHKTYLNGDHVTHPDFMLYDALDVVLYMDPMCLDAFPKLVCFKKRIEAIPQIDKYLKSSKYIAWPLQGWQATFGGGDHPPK

[5] = target: SIK1 peptide wherein serine at position 577 is substituted with alanine (on GST as carrier protein) [GST: P08515]
SIK1 peptide wherein serine at position 577 is substituted with alanine (on GST as carrier protein) [GST: P08515], sequence (P08515 whole entry, looked up): as above

[6] = target: wild-type SIK1 peptide not phosphorylated by PKA (on GST as carrier protein) [GST: P08515]
wild-type SIK1 peptide not phosphorylated by PKA (on GST as carrier protein) [GST: P08515], sequence (P08515 whole entry, looked up): as above

[7] = target: T1, peptide p300 [84-93 (S89A)], Q09472

Row | Protein | phosphorylation of the substrate (32P) [1] | phosphorylation of the substrate (32P) [2] | phosphorylation of the substrate (32P) [3] | protein-phosphorylating activity (32P intake, SDS-PAGE) [4] | phosphorylation of the substrate (32P) [5] | phosphorylation of the substrate (32P) [6] | enzyme activity of SIK (phosphorylation of Syntide 2) [7] | phosphorylation by SIK [7]
1 | B1 | the mutant R575A was phosphorylated much more efficiently than the case of the wild-type SIK1 | the mutants S577A, R574A, and R574/575A were not phosphorylated | the mutants S577A, R574A, and R574/575A were not phosphorylated | GST-rat SIK1 and GST-rat SIK1 (K56M) were subjected to the same experiment. Consequently, the same results were obtained. | the mutants S577A, R574A, and R574/575A were not phosphorylated | the wild-type SIK1 was phosphorylated | – | –
2 | B2 | – | – | – | wild-type GST-mSIK2 has an auto-phosphorylating activity and an activity of phosphorylating GST-Syntide 2 | – | – | the unphosphorylated peptide p300 wherein serine at position 89 is substituted with alanine inhibits the enzyme activity of SIK | a peptide wherein serine at position 89 in p300 is substituted with alanine becomes unphosphorylated
